Results on two substances are retold here after PMC13167113.

In assay [1] the target is CXCR4 endogenous on cells (human (endogenous in Daudi and Jurkat)) (UniProt P61073).
Assay [2] shares this target. The source holds these as a separate data set.

Sequence of UniProt P61073 (P61073 whole entry): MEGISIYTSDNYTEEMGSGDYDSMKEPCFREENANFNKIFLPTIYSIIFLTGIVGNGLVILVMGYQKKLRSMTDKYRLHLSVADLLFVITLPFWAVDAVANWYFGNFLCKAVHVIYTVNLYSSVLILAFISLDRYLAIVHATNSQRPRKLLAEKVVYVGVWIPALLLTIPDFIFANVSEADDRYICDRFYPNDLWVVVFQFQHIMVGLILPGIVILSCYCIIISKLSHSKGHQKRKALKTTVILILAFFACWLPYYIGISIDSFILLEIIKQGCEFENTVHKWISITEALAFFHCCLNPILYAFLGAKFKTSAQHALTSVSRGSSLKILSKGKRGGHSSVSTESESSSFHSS

In the case of “recombinant X4 HIV-1 gp120 (residues 31-507, isolate HXB2) with a C-terminal histidine tag (from UniProt P04578 31-507) (domain or fragment)”, the SPT-TIRF: percentage of CXCR4-AcGFP particles that are nanoclusters (≥3 receptors/particle) on JKCD4+X4- cells on X4-gp120-coated coverslips (basal ∼2%) in assay [1] was 18%. In the case of “X4 HIV-1 Env (gp120 and gp41) of HXB2 on virus-like particles (from UniProt P04578 33-511; P04578 512-856) (complex)”, in assay [2], the SPT-TIRF: percentage of CXCR4-AcGFP particles that are nanoclusters (≥3 receptors/particle) on JKCD4+X4- cells on gp120-VLP-coated coverslips (basal ∼1%; Env(-) VLPs ∼9%) was 29%.
